Measurements published in publication PMC7606508, “Synthesis of two new lipid mediators from docosahexaenoic acid by combinatorial catalysis involving enzymatic and chemical reaction” (Scientific Reports, 2020).

Tests used:
Experiment in all cases: purified protein
Type in all cases: biochemical, Phormidium nigroviride
Conditions in all cases: 50 mM Tris-HCl pH 8.0, 30 °C, 3 μg/mL enzyme, 25-175 μM substrate
purified protein [1] = substrate: CC/C=C\C/C=C\C/C=C\C/C=C\C/C=C\C/C=C\CCC(=O)O
purified protein [2] = substrate: CCCCC/C=C\C/C=C\C/C=C\C/C=C\CCCC(=O)O
purified protein [3] = substrate: CC/C=C\C/C=C\C/C=C\C/C=C\C/C=C\CCCC(=O)O

B1: Osc-LOX (Phormidium nigroviride PCC 7112) (protein)
chain: MVDNMKPSLPQDDPNQEQRKDSLNRQQQAYQFDYESLSPLALLKNVPAVENFSSKYIGERILATSELPANMLAADSRTFLDPLDELQDYEDFFTLLPLPAVAKIYQTDRSFAEQRLSGANPMVLRLLDAGDPRAQTLAQISSFHPLFDLGQELQQKNIYVADYTGTDEHYRAPSKIGGGSYEKGRKFLPKPRAFFAWRWTGIRDRGEMTPIAIQLDPTPDSHVYTPFDPPVDWLFAKLCVQVADANHHEMSSHLGRTHLVMEPIAIVTARQLAQNHPLSLLLKPHFRFMLTNNELARSYLIAPGGPVDELLGGTLPETMEIAREACSTWSLDEFALPAELKNRGMDDTNQLPHYPYRDDGLLLWDAIETFVSGYLKFFYPTEIAIVQDVELQTWAQELASDRGGKVKGMPPRINTVEQLIKIVTTIIFTCGPQHSAVNFPQYEYMSFAANMPLAAYRDIPKITASGNLEVITEKDILRLLPPYKRAADQLKILFTLSAYRYDRLGYYDKSFRELYRMSFDEVFAGTPIQLLARQFQQNLNMAEQKIDANNQKRVIPYIALKPSLVINSISM
notes: N-terminal His6 tag (pET-28a, NdeI/XhoI) kept; codon-optimized synthetic gene; E. coli BL21(DE3)
Km (purified protein [1]): 63.9 ± 4.8 µM
kcat (purified protein [1]): 13.9 ± 0.348 s⁻¹
kcat/Km (purified protein [1]): 218000 ± 11700 M⁻¹ s⁻¹
Km (purified protein [2]): 68.9 ± 3.5 µM
kcat (purified protein [2]): 19.6 ± 0.277 s⁻¹
kcat/Km (purified protein [2]): 285000 ± 10000 M⁻¹ s⁻¹
Km (purified protein [3]): 67.0 ± 3.6 µM
kcat (purified protein [3]): 15.6 ± 0.452 s⁻¹
kcat/Km (purified protein [3]): 233000 ± 6670 M⁻¹ s⁻¹
